Target: HLA-A*02:01 (Homo sapiens, UniProt P04439, D140Y/D185E/D98H/E176V/E277Q/G131W/G231S/I119V/I121R/I166T/I218V/L300P/L318F/N151K/N90K/P208A/P217A/Q86G/Q94H/R138H/R169H/T345S)
Test: MHC binding assay (UV-ligand exchange, β2m ELISA, peptide exchange yield)
Conditions: MHC class I binding score; binding to HLA-A*02:01 ranged by peptide exchange yield (UV-ligand exchange, β2m ELISA)
In short: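 Peptide–HLA-A*02:01 complexes were formed by UV-mediated exchange of a UV-cleavable ligand for the test peptide. Exchange yield was measured by capturing complexes on streptavidin, detecting with HRP anti-β2m antibody (1 h, 37°C) and reading TMB absorbance at 450 nm.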

## 401 (ILLDDTGLAYI; listed as Homo sapiens) [compound 401]
  Peptide exchange: ″+++″ (≧50% = +++)

## 402 (VLFSGALLGL; listed as Homo sapiens) [compound 402]
  Peptide exchange: ″++″ (≧20% = ++)

## 403 (KLYDRILRV; listed as Homo sapiens) [compound 403]
  Peptide exchange: ″++″ (≧20% = ++)

## 405 (ALYDVFLEV; listed as Homo sapiens) [compound 405]
  Peptide exchange: ″++″ (≧20% = ++)

## 407 (YLMDLINFL; listed as Homo sapiens) [compound 407]
  Peptide exchange: ″+++″ (≧50% = +++)

## 408 (VLDDSIYLV; listed as Homo sapiens) [compound 408]
  Peptide exchange: ″++″ (≧20% = ++)

## 409 (LLDAMNYHL; listed as Homo sapiens) [compound 409]
  Peptide exchange: ″++″ (≧20% = ++)

## 412 (YLDDLNEGVYI; listed as Homo sapiens) [compound 412]
  Peptide exchange: ″++″ (≧20% = ++)

## 426 (RLADKSVLV; listed as Homo sapiens) [compound 426]
  Peptide exchange: ″+++″ (≧50% = +++)

## 427 (ALLPLSPYL; listed as Homo sapiens) [compound 427]
  Peptide exchange: ″+++″ (≧50% = +++)

## 428 (KLGHTDILVGV; listed as Homo sapiens) [compound 428]
  Peptide exchange: ″++″ (≧20% = ++)

## 429 (GLVNDLARV; listed as Homo sapiens) [compound 429]
  Peptide exchange: ″++″ (≧20% = ++)

## 430 (HLYSSIEHLTT; listed as Homo sapiens) [compound 430]
  Peptide exchange: ″+++″ (≧50% = +++)

## 431 (SLVNVVPKL; listed as Homo sapiens) [compound 431]
  Peptide exchange: ″++″ (≧20% = ++)

## 432 (TLIEESAKV; listed as Homo sapiens) [compound 432]
  Peptide exchange: ″++″ (≧20% = ++)

## 433 (AMLNEPWAV; listed as Homo sapiens) [compound 433]
  Peptide exchange: ″+++″ (≧50% = +++)

## 434 (KVSNSGITRV; listed as Homo sapiens) [compound 434]
  Peptide exchange: ″++″ (≧20% = ++)

## 436 (HLAEVSAEV; listed as Homo sapiens) [compound 436]
  Peptide exchange: ″+++″ (≧50% = +++)

## 437 (SMAPGLVIQAV; listed as Homo sapiens) [compound 437]
  Peptide exchange: ″+++″ (≧50% = +++)

## 438 (KLLPLAGLYL; listed as Homo sapiens) [compound 438]
  Peptide exchange: ″++++″ (≧75% = ++++)

## 439 (YLLQEIYGI; listed as Homo sapiens) [compound 439]
  Peptide exchange: ″+++″ (≧50% = +++)

## 440 (ALADGVTMQV; listed as Homo sapiens) [compound 440]
  Peptide exchange: ″++″ (≧20% = ++)

## 441 (ALLENPKMEL; listed as Homo sapiens) [compound 441]
  Peptide exchange: ″+++″ (≧50% = +++)

## 442 (GLLGGGGVLGV; listed as Homo sapiens) [compound 442]
  Peptide exchange: ″+++″ (≧50% = +++)

## 444 (GLLRDEALAEV; listed as Homo sapiens) [compound 444]
  Peptide exchange: ″+++″ (≧50% = +++)

## 447 (QLVPALAKV; listed as Homo sapiens) [compound 447]
  Peptide exchange: ″++″ (≧20% = ++)

## 448 (NLLETKLQL; listed as Homo sapiens) [compound 448]
  Peptide exchange: ″+++″ (≧50% = +++)

## 449 (KLAEGLDIQL; listed as Homo sapiens) [compound 449]
  Peptide exchange: ″+++″ (≧50% = +++)

## 450 (FMIDASVHPTL; listed as Homo sapiens) [compound 450]
  Peptide exchange: ″+++″ (≧50% = +++)

## 451 (LLLLDTVTMQV; listed as Homo sapiens) [compound 451]
  Peptide exchange: ″++″ (≧20% = ++)

## 452 (ILLEHGADPNL; listed as Homo sapiens) [compound 452]
  Peptide exchange: ″+++″ (≧50% = +++)

## 453 (KLLEATSAV; listed as Homo sapiens) [compound 453]
  Peptide exchange: ″++″ (≧20% = ++)

## 455 (SLLKEPQKVQL; listed as Homo sapiens) [compound 455]
  Peptide exchange: ″++″ (≧20% = ++)

## 456 (LLIGHLERV; listed as Homo sapiens) [compound 456]
  Peptide exchange: ″+++″ (≧50% = +++)

## 457 (SLLPGNLVEKV; listed as Homo sapiens) [compound 457]
  Peptide exchange: ″+++″ (≧50% = +++)

## 458 (SLIDKLYNI; listed as Homo sapiens) [compound 458]
  Peptide exchange: ″++″ (≧20% = ++)

## 459 (ALITEVVRL; listed as Homo sapiens) [compound 459]
  Peptide exchange: ″++″ (≧20% = ++)

## 461 (VMFRTPLASV; listed as Homo sapiens) [compound 461]
  Peptide exchange: ″++″ (≧20% = ++)

## 462 (KLAKQPETV; listed as Homo sapiens) [compound 462]
  Peptide exchange: ″+++″ (≧50% = +++)

## 464 (ALNDCIYSV; listed as Homo sapiens) [compound 464]
  Peptide exchange: ″+++″ (≧50% = +++)

## 465 (QLCDLNAEL; listed as Homo sapiens) [compound 465]
  Peptide exchange: ″+++″ (≧50% = +++)

## 466 (VLIANLEKL; listed as Homo sapiens) [compound 466]
  Peptide exchange: ″++++″ (≧75% = ++++)

## 467 (FLAKDFNFL; listed as Homo sapiens) [compound 467]
  Peptide exchange: ″+++″ (≧50% = +++)

## 468 (YLRSVGDGETV; listed as Homo sapiens) [compound 468]
  Peptide exchange: ″+++″ (≧50% = +++)

## 469 (YLASDEITTV; listed as Homo sapiens) [compound 469]
  Peptide exchange: ″+++″ (≧50% = +++)

## 471 (YLYNNMIAKI; listed as Homo sapiens) [compound 471]
  Peptide exchange: ″+++″ (≧50% = +++)

## 472 (KLLEVSDDPQV; listed as Homo sapiens) [compound 472]
  Peptide exchange: ″+++″ (≧50% = +++)

## 473 (AMATESILHFA; listed as Homo sapiens) [compound 473]
  Peptide exchange: ″+++″ (≧50% = +++)

## 474 (YLDPALELGPRNV; listed as Homo sapiens) [compound 474]
  Peptide exchange: ″+++″ (≧50% = +++)

## 475 (LLLNEEALAQI; listed as Homo sapiens) [compound 475]
  Peptide exchange: ″+++″ (≧50% = +++)

## 476 (ALMERTGYSMV; listed as Homo sapiens) [compound 476]
  Peptide exchange: ″+++″ (≧50% = +++)

## 477 (ALLPASGQIAL; listed as Homo sapiens) [compound 477]
  Peptide exchange: ″+++″ (≧50% = +++)

## 478 (YLLHEKLNL; listed as Homo sapiens) [compound 478]
  Peptide exchange: ″+++″ (≧50% = +++)

## 479 (SLFGNSGILENV; listed as Homo sapiens) [compound 479]
  Peptide exchange: ″+++″ (≧50% = +++)

## 480 (ALLEDSCHYL; listed as Homo sapiens) [compound 480]
  Peptide exchange: ″+++″ (≧50% = +++)

## 481 (GLIEDYEALL; listed as Homo sapiens) [compound 481]
  Peptide exchange: ″+++″ (≧50% = +++)

## 484 (SLIEKVTQL; listed as Homo sapiens) [compound 484]
  Peptide exchange: ″+++″ (≧50% = +++)

## 485 (NVPDSFNEV; listed as Homo sapiens) [compound 485]
  Peptide exchange: ″+++″ (≧50% = +++)
